Assay results taken from patent publication US20140017242A1, “ANTI-BRADYKININ B2 RECEPTOR (BKB2R) MONOCLONAL ANTIBODY” (Diamedica, Inc., priority 2010, published 2014).

Assays:
Assay type in all cases: in vivo, rat
ZDF fa/fa rats [1] = test: 21-day ZDF fa/fa study: oral glucose tolerance test (blood glucose, plasma insulin); details: day 21
Procedure: (§1) Animals. Male ZDF fa/fa rats were obtained from CRL (Kingston, N.Y.). Upon arrival, rats were seven weeks of age. The rats were housed individually per cage in a room with a photo cycle of 12 hours of light and 12 hours of dark and an ambient temperature of 70-72° F. and fed on regular rodent diet and water ad libitum. At the age of eleven weeks, rats were divided into six groups (Table 5) of eight rats per group based on fasting blood glucose levels. A sub-group of four rats per group was maintained in parallel to the main groups and was dosed similarly for twenty-one days for a hyperinsulinemic-euglycemic clamp study. […]
(§2) An oral glucose tolerance test (OGTT) was performed on Day 0, 7, 14 and 21 for each group of the study. Plasma samples were collected at each time point during OGTT to also measure insulin levels. Body weight, food and water intake were measured twice a week. Blood pressure and heart rates were monitored on Day 0, 7, 14 and 21 using a non-invasive tail cuff method (with five readings per rat taken and then averaged). Fasting serum samples were collected on Day 0, 7, 14 and 21 before OGTT for determination of triglyceride and total cholesterol level. Urine samples were collected on Day 7 and 14 for the determination of glycosuria. Glycated (Glycosylated) hemoglobin (HbA1c) was measured at the end of the study. Assay kits for these studies were as presented in Table 6, and were used according to the suppliers' instructions.
OGTTs were performed on Day 0, 7, 14 and Day 21. Rats were fasted overnight and fasted blood glucose levels were measured (t=0 min), and then each rat was given a single 1.5 ml dose of glucose solution (2 g/kg body weight of D-(+)-glucose (G7528, Sigma) solubilized in deionized water) administered by oral gavage. […] At each time point of an OGGT approximately 50-60 μl of blood were collected and processed for plasma to measure insulin levels.
Plasma Collection. On days 0, 7, 14 and 21 during an OGTT test, blood samples were collected from the rats at each time point (0, 15, 30, 60, 90 and 120 minutes) into tubes containing lithium heparin (BD Biosciences, USA) by tail nip and kept on ice. The samples were then centrifuged at 4° C. for plasma separation and the plasma supernatants were transferred into 0.5 ml Eppendorf™ tubes by pipette and stored at −80° C. for the analysis of insulin levels.

ZDF fa/fa rats [2] = test: Oral glucose tolerance test in ZDF fa/fa rats, humanized mAbs; details: single s.c. administration 0.2 mg/kg
Source text: This example describes evaluation of mouse mAb 5F12G1 and its twelve humanized clones in Zucker Diabetic fatty (ZDF fa/fa) rats for effects on insulin sensitivity in animals. Zucker Diabetic Rats develop symptoms similar to type 2 diabetes and are genetically resistant to insulin. […] Therefore, the Zucker rat is a good model to test the ability of the monoclonal antibody to increase insulin sensitivity, especially in an OGTT.
Male ZDF fa/fa rats were obtained from Charles River (Kingston, ON). Upon arrival, rats were ten weeks of age. The rats were housed individually per cage in a room with a photo cycle of 12 hours of light and 12 hours of dark and an ambient temperature of 70-72° F. and fed on regular rodent diet and water ad libitum. After seven days of acclimatization, rats were grouped into fourteen groups of three rats per group (Table 10).
Oral Glucose Tolerance Test. An oral glucose tolerance test (OGTT) was performed on overnight fasted (16 hours) rats. Rats received subcutaneously administered humanized mAbs, mouse mAb 5F12G1 (positive control) and PBS (vehicle control) at a dose of 0.2 mg/kg body weight, thirty minutes prior to glucose administration. D-Glucose was prepared in distilled water and administered orally at 2 g/kg body weight. Blood glucose levels were measured before administration of humanized mAbs, 5F12G1 or vehicle (t=−30 minutes) and just before glucose loading (0 minute), and at timepoints of 30, 60, 90 and 120 minutes, using Accu-chek™ glucose meter.

ZDF fa/fa rats [3] = test: 21-day ZDF fa/fa study: urinary glucose (glycosuria); details: day 14
ZDF fa/fa rats [4] = test: 21-day ZDF fa/fa study: serum total cholesterol and triglyceride; details: day 21
Procedure: as §1, §2
The mean change in fasting blood glucose (mg/dL), serum cholesterol (mg/dL) and systolic blood pressure (mm Hg) from baseline (Day 0) to Day 21 was compared between the high-dose (5F12G1, 0.2 mg/kg) and negative control (MG2b-57, 0.2 mg/kg) groups using an analysis of covariance to adjust for baseline levels. The mean HbA1c percentage in high-dose (5F12G1, 0.2 mg/kg) rats was compared to the mean HbA1c percentage for negative control (MG2b-57, 0.2 mg/kg) rats using an unequal-variance, independent two-sample t-test. A significance level of a=0.05 was used for all tests, and all analyses were conducted using SAS statistical software (vs. 9.2, Cary, N.C., U.S.A.).

ZDF fa/fa rats [5] = test: 21-day ZDF fa/fa study: tail cuff blood pressure and heart rate
Procedure: as §1
An oral glucose tolerance test (OGTT) was performed on Day 0, 7, 14 and 21 for each group of the study. […] Body weight, food and water intake were measured twice a week. Blood pressure and heart rates were monitored on Day 0, 7, 14 and 21 using a non-invasive tail cuff method (with five readings per rat taken and then averaged). […] Glycated (Glycosylated) hemoglobin (HbA1c) was measured at the end of the study. […]
Blood pressure measurements were performed using a blood pressure monitor and data acquisition software. […] The VPR sensor utilized a differential pressure transducer to non-invasively measure the blood volume in the tail, and determined systolic blood pressure, diastolic blood pressure, and heart rate. […]

B1: 5F12G1: murine monoclonal anti-BKB2R antibody (IgG2b,κ), VH comprising SEQ ID NO:1, VL comprising SEQ ID NO:2 (antibody, listed as Mus musculus, V domains shown)
VH: EVKLEESGGGLVQPGGSMKLSCVVSGFTFSDYWMSWVRHSPEMGLEWVAEIRLKSDNYATHYAESVKGRFTISRDDSKSRLYLQINSLRGEDTGIYYCTRDYYAMEYWGQGTSVTVSS
VL: DVVMTQTPLSLPVSLGDQASISCRSSQTIVHSNGKTYLEWYLQKPGQSPKLLIYKVSNRFSGVPDRFSGSGSGTEFTLKISRVETEDLGVYYCFQASHVPYTFGGGTKLEIK
ZDF fa/fa rats [1]; 0.008 mg/kg s.c. every 3 days
  blood glucose level at the start of the OGTT: 190 ± 40 mg/dL
  fasting insulin level: 14 ± 3 ng/mL
  insulin level at 15 minutes of the OGTT: 24 ± 6 ng/mL
ZDF fa/fa rats [1]; 0.04 mg/kg s.c. every 3 days
  blood glucose level at 30 minutes of the OGTT (peak): 355 mg/dL
  blood glucose level at the start of the OGTT: 163 ± 40 mg/dL
  fasting insulin level: 12 ± 3 ng/mL
  insulin level at 15 minutes of the OGTT: 26 ± 3 ng/mL
ZDF fa/fa rats [1]; 0.2 mg/kg s.c. every 3 days
  AUC of blood glucose during OGTT: 33241.13 ± 3910.62 mg/dL (min)
  blood glucose level at 30 minutes of the OGTT (peak): 312 mg/dL
  blood glucose level at the start of the OGTT: 150 ± 20 mg/dL
  fasting insulin level: 17 ± 5 ng/mL
  insulin level at 15 minutes of the OGTT: 30 ± 7 ng/mL
ZDF fa/fa rats [1]; 0.008 s.c. every 3 days
  blood glucose level at 30 minutes of the OGTT (peak): 400 mg/dL
ZDF fa/fa rats [2]
  glucose tolerance: showed improvement in glucose tolerance
ZDF fa/fa rats [2]; 30 min prior to glucose 2 g/kg
  area under curve (AUC) of blood glucose concentration after oral administration of glucose, compared to vehicle control: decreased
ZDF fa/fa rats [3]; 0.008 mg/kg s.c. every 3 days
  urine glucose level: 54 ± 11 mg/dL
ZDF fa/fa rats [3]; 0.04 mg/kg s.c. every 3 days
  urine glucose level: 49 ± 6 mg/dL
ZDF fa/fa rats [3]; 0.2 mg/kg s.c. every 3 days
  urine glucose level: 31 ± 2 mg/dL
ZDF fa/fa rats [4]; 0.008 mg/kg s.c. every 3 days
  serum cholesterol: 167 ± 7 mg/dL
ZDF fa/fa rats [4]; 0.04 mg/kg s.c. every 3 days
  serum cholesterol: 162 ± 18 mg/dL
ZDF fa/fa rats [4]; 0.2 mg/kg s.c. every 3 days
  decrease of serum cholesterol from baseline: 12 ± 8 mg/dL
  serum cholesterol: 145 ± 26 mg/dL
ZDF fa/fa rats [5]; 0.2 mg/kg s.c. every 3 days (highest dose), Day 0 to Day 21
  increase in systolic blood pressure from baseline: 0.12+/−4.4 mm Hg
ZDF fa/fa rats [5]; all 5F12G1 doses, day 21
  systolic, diastolic blood pressure and heart rate measurements relative to the control group MG2b-57: below the control group
